The supplement of paper PMC9112550, “Optimization of the antimicrobial peptide Bac7 by deep mutational scanning” (BMC Biology, 2022)

System: Escherichia coli TOP10
Experiment: shrunken log2 fold change of peptide-encoding DNA abundance (4.5 h post-induction vs induction); higher = less antimicrobial activity (less host growth inhibition)
Conditions: time post-induction: 4.5 h; library: site-saturation at positions 5, 18, 19, 20
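Also: peptides expressed intracellularly from a pBAD plasmid library in pooled LB shake-flask culture, induced with 0.3% L-arabinose, DNA abundance read by NGS, three biological replicates, DESeq2 with apeglm shrinkage.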

Row | Sequence | shrunken log2 fold change
1 | RRIRKRPPRLPRPRPRPGVAPRP | 0.892
2 | RRIRDRPPRLPRPRPRPMLCPRP | -0.00642
3 | RRIRWRPPRLPRPRPRPNFPPRP | 0.0284
4 | RRIRKRPPRLPRPRPRPPHYPRP | 0.176
5 | RRIRIRPPRLPRPRPRPQDAPRP | -0.449
6 | RRIRIRPPRLPRPRPRPRIGPRP | -0.0469
7 | RRIRMRPPRLPRPRPRPHFRPRP | 0.0286
8 | RRIRERPPRLPRPRPRPLHFPRP | -0.141
9 | RRIRNRPPRLPRPRPRPWITPRP | -0.0261
10 | RRIRFRPPRLPRPRPRPLCEPRP | -0.166
11 | RRIRYRPPRLPRPRPRPYTRPRP | -1.51
12 | RRIRCRPPRLPRPRPRPLDQPRP | 0.221
13 | RRIRWRPPRLPRPRPRPYQFPRP | -0.00205
14 | RRIRERPPRLPRPRPRPMNQPRP | -0.67
15 | RRIRARPPRLPRPRPRPKHVPRP | 0.0861
16 | RRIRYRPPRLPRPRPRPNHFPRP | -0.0628
17 | RRIRSRPPRLPRPRPRPTKYPRP | -0.52
18 | RRIRTRPPRLPRPRPRPMMGPRP | -0.1
19 | RRIRCRPPRLPRPRPRPEITPRP | 0.0771
20 | RRIRGRPPRLPRPRPRPFVCPRP | 0.327
21 | RRIRNRPPRLPRPRPRPDSAPRP | -0.126
22 | RRIRKRPPRLPRPRPRPCCEPRP | 0.638
23 | RRIRCRPPRLPRPRPRPGTSPRP | 0.0279
24 | RRIRHRPPRLPRPRPRPPIEPRP | -0.809
25 | RRIRARPPRLPRPRPRPNRDPRP | -0.183

Row | Sequence | shrunken log2 fold change
26 | RRIRVRPPRLPRPRPRPFKYPRP | -0.0213
27 | RRIRNRPPRLPRPRPRPHSNPRP | -0.341
28 | RRIRKRPPRLPRPRPRPCVQPRP | -0.038
29 | RRIRQRPPRLPRPRPRPTCDPRP | -0.116
30 | RRIRWRPPRLPRPRPRPSWCPRP | -0.0416
31 | RRIRGRPPRLPRPRPRPGCFPRP | 1.1
32 | RRIRFRPPRLPRPRPRPYMPPRP | -1.09
33 | RRIRWRPPRLPRPRPRPYEIPRP | -0.402
34 | RRIRPRPPRLPRPRPRPWMDPRP | -0.934
35 | RRIRYRPPRLPRPRPRPSFNPRP | -0.756
36 | RRIRWRPPRLPRPRPRPVHHPRP | -0.0507
37 | RRIRSRPPRLPRPRPRPQYTPRP | -0.983
38 | RRIRSRPPRLPRPRPRPTIWPRP | 0.393
39 | RRIRTRPPRLPRPRPRPERFPRP | 0.0107
40 | RRIRHRPPRLPRPRPRPHNYPRP | -0.296
41 | RRIRDRPPRLPRPRPRPGDEPRP | 0.0587
42 | RRIRQRPPRLPRPRPRPCIYPRP | -0.204
43 | RRIRRRPPRLPRPRPRPEVCPRP | 0.793
44 | RRIRGRPPRLPRPRPRPYQAPRP | -0.119
45 | RRIRERPPRLPRPRPRPWCAPRP | -0.158
46 | RRIRPRPPRLPRPRPRPLQTPRP | 0.0208
47 | RRIRDRPPRLPRPRPRPQVQPRP | -0.0379
48 | RRIRHRPPRLPRPRPRPNWHPRP | -0.242
49 | RRIRSRPPRLPRPRPRPTDPPRP | -0.000503
50 | RRIRPRPPRLPRPRPRPAVFPRP | 0.373

Row | Sequence | shrunken log2 fold change
51 | RRIRSRPPRLPRPRPRPGMYPRP | 0.0605
52 | RRIRSRPPRLPRPRPRPFTRPRP | 0.0337
53 | RRIRNRPPRLPRPRPRPAEMPRP | -0.00992
54 | RRIRYRPPRLPRPRPRPTPGPRP | -0.0705
55 | RRIRDRPPRLPRPRPRPWCMPRP | -1
56 | RRIRPRPPRLPRPRPRPQEEPRP | 0.0679
57 | RRIRFRPPRLPRPRPRPMADPRP | -0.00574
58 | RRIRVRPPRLPRPRPRPTPLPRP | 0.251
59 | RRIRLRPPRLPRPRPRPCARPRP | 0.0322
60 | RRIRWRPPRLPRPRPRPTGFPRP | 0.645
61 | RRIRQRPPRLPRPRPRPQNRPRP | -0.0176
62 | RRIRMRPPRLPRPRPRPMPFPRP | 0.221
63 | RRIRGRPPRLPRPRPRPYGIPRP | -0.165
64 | RRIRCRPPRLPRPRPRPGMCPRP | 0.125
65 | RRIRHRPPRLPRPRPRPYVEPRP | 0.0369
66 | RRIRHRPPRLPRPRPRPHCAPRP | -0.109
67 | RRIRWRPPRLPRPRPRPEDKPRP | -0.028
68 | RRIRNRPPRLPRPRPRPCYMPRP | 0.0787
69 | RRIRSRPPRLPRPRPRPMNQPRP | -0.0276
70 | RRIRERPPRLPRPRPRPNRQPRP | 0.0895
71 | RRIRTRPPRLPRPRPRPKGSPRP | -0.0414
72 | RRIRFRPPRLPRPRPRPTIDPRP | 0.103
73 | RRIRHRPPRLPRPRPRPKRPPRP | 0.354
74 | RRIRLRPPRLPRPRPRPLAYPRP | -0.264
75 | RRIRARPPRLPRPRPRPDLWPRP | 1.51

Row | Sequence | shrunken log2 fold change
76 | RRIRLRPPRLPRPRPRPFHHPRP | -0.147
77 | RRIRCRPPRLPRPRPRPVGMPRP | 0.0711
78 | RRIRIRPPRLPRPRPRPQLFPRP | 0.667
79 | RRIRYRPPRLPRPRPRPGNMPRP | -0.55
80 | RRIRERPPRLPRPRPRPCVPPRP | 0.0169
81 | RRIRIRPPRLPRPRPRPIRHPRP | -0.0741
82 | RRIRVRPPRLPRPRPRPLWGPRP | 0.0188
83 | RRIRMRPPRLPRPRPRPDGVPRP | 0.0632
84 | RRIRYRPPRLPRPRPRPYDDPRP | -0.129
85 | RRIRTRPPRLPRPRPRPIWRPRP | -0.111
86 | RRIRSRPPRLPRPRPRPKWWPRP | 0.0275
87 | RRIRERPPRLPRPRPRPAHIPRP | -0.0903
88 | RRIRARPPRLPRPRPRPAEHPRP | 0.193
89 | RRIRARPPRLPRPRPRPCCYPRP | 0.0589
90 | RRIRKRPPRLPRPRPRPYIQPRP | -0.319
91 | RRIRSRPPRLPRPRPRPDKMPRP | -0.15
92 | RRIRMRPPRLPRPRPRPDHRPRP | -0.279
93 | RRIRGRPPRLPRPRPRPCMVPRP | 0.304
94 | RRIRPRPPRLPRPRPRPIKYPRP | 0.32
95 | RRIRQRPPRLPRPRPRPYHKPRP | 0.0375
96 | RRIRSRPPRLPRPRPRPMAWPRP | -0.00175
97 | RRIRDRPPRLPRPRPRPWPFPRP | 0.0405
98 | RRIRLRPPRLPRPRPRPPDLPRP | 0.169
99 | RRIRRRPPRLPRPRPRPKANPRP | 0.264
100 | RRIRYRPPRLPRPRPRPWRDPRP | -0.0075

Row | Sequence | shrunken log2 fold change
101 | RRIRVRPPRLPRPRPRPWFFPRP | -0.148
102 | RRIRIRPPRLPRPRPRPMPYPRP | -0.0219
103 | RRIRWRPPRLPRPRPRPPLLPRP | 0.395
104 | RRIRRRPPRLPRPRPRPFAFPRP | 0.0757
105 | RRIRKRPPRLPRPRPRPWLIPRP | 0.109
106 | RRIRKRPPRLPRPRPRPYARPRP | -0.0148
107 | RRIRERPPRLPRPRPRPTEPPRP | 0.0207
108 | RRIRFRPPRLPRPRPRPYVLPRP | -0.332
109 | RRIRDRPPRLPRPRPRPHIDPRP | -0.0782
110 | RRIRIRPPRLPRPRPRPLMQPRP | -0.564
111 | RRIRDRPPRLPRPRPRPIEHPRP | -0.172
112 | RRIRHRPPRLPRPRPRPGKHPRP | -0.362
113 | RRIRVRPPRLPRPRPRPCGDPRP | -0.18
114 | RRIRQRPPRLPRPRPRPTNLPRP | -0.0248
115 | RRIRTRPPRLPRPRPRPECTPRP | 0.0491
116 | RRIRDRPPRLPRPRPRPSFEPRP | 0.495
117 | RRIRERPPRLPRPRPRPMAVPRP | 0.19
118 | RRIRHRPPRLPRPRPRPTILPRP | -0.194
119 | RRIRPRPPRLPRPRPRPKGAPRP | 0.21
120 | RRIRDRPPRLPRPRPRPWYDPRP | -0.6
121 | RRIRPRPPRLPRPRPRPFVIPRP | 0.00225
122 | RRIRIRPPRLPRPRPRPRNIPRP | -0.00545
123 | RRIRWRPPRLPRPRPRPDNQPRP | -0.265
124 | RRIRRRPPRLPRPRPRPQWLPRP | 0.431
125 | RRIRYRPPRLPRPRPRPWAIPRP | 0.0155
